Reference: patent publication US20230106247A1 (L AND L BIO CO LTD NINGBO CHINA, published 2023)
Where two headings read alike, the source gives them in different places.

Key:
[1] = target: T1, human T cells (expressing Sirpγ) (human, UniProt Q9P1W8 29-387); test: flow cytometry on PBMC
T1 construct: whole, on cells; The target as printed is the cell; also called human PBMCs (T cells)

human Sirpα-V1-his [2] = target: T2, human Sirpα-V1-his (human, UniProt P78324 31-373); test: blocking ELISA, competitor CD47-hFc
T2 construct: range 31-373; Bought (Sino Biological 11612-H08H) or expressed in-house; also called hSirpα-V1; hSirpα-V1-his
Protocol: (§1) The recombinant proteins such as human Sirpα-V1-hFc/Sirpα-V1-his were diluted to concentrations of 5 μg/mL or 2 μg/mL respectively with a PBS buffer at pH 7.4, and then added into a 96-well ELISA plate (Corning, CLS3590-100EA) at a volume of 50 μL/well, and placed in an incubator at 37° C. for 2 hours. After the liquid was discarded, the wells were added with a blocking solution of 5% skimmed milk (skimmed milk powder available from Bright Dairy) diluted with PBS at 230 μL/well, and incubated in an incubator at 37° C. for 3 hours, or placed overnight at 4° C. (for 16-18 hours) for blocking. […] The plate was washed for 5 times, added with 50 μL/well of streptavidin-HRP (GenScript, M00091) or anti-his-HRP secondary antibody (GenScript, A00612) diluted at 1:1000, incubated at 37° C. for 1 hour, and then washed with PBST for 5 times. Each well was added with 50 μL of TMB (Surmodic, Cat #: TTMB-1000-01) for color development, and added with 50 μL/well of 1 M H₂SO₄ to stop the reaction. The readings on a microplate reader (MultiskanGO Thermo, Model 51119200) were subjected to data analysis by GraphPad prism 5.

[3] = target: T3, human Sirpα-V1 on CHO-K1 cells (CHO-K1 hSirpα+ cell line) (human, UniProt P78324 31-504); test: cell ELISA on hSirpα-v1+ cell strain
T3 construct: whole, on cells; also called hSirpα-v1+ cell strain
From the text: The readings on a microplate reader (MultiskanGO Thermo, Model 51119200) were subjected to data analysis by GraphPad prism 5.

human Sirpα-V1-hFc [4] = target: T4, human Sirpα-V1-hFc (human, UniProt P78324 31-373); test: blocking ELISA, competitor CD47-his
T4 construct: range 31-373; also called hSirpα (dimer); hSirpα-V1-hFc (dimer); not shown: human IgG1 Fc region at the C-terminus
Protocol: (§2) The antigens PD-1 and Sirpα expressed according to the method of Example 1 were diluted with a PBS buffer at pH7.4 to a concentration of 2 μg/mL, added into a 96-well ELISA plate (Corning, CLS3590-100EA) at a volume of 50 μL/well, and incubated at 37° C. for 2 hours. After the liquid was discarded, the wells were added with a blocking solution of 5% skimmed milk (Sangon Biotech (Shanghai) Co., Ltd., A600669-0250) formulated with PBS at 200 μL/well, and incubated at 37° C. for 3 hours for blocking. […] The plate was washed with PBST for 5 times, added with 50 μL/well of HRP-labeled secondary antibody (GenScript Biotechnology Co., Ltd., M00091) diluted at 1:1000, and incubated at 37° C. for 1 hour. The plated was washed with PBST for 5 times, then added with 50 μl/well of TMB chromogenic substrate (KPL, 52-00-03), incubated at room temperature for 5-10 min, added with 50 μl/well of 1 M H₂SO₄ to stop the reaction, and read by a […] Go microplate reader (ThermoFisher, 51119200) for the absorbance value at 450 nm, and then IC₅₀ was calculated according to the OD value.

human Sirpα-V2-his [5] = target: human Sirpα-V2-his (human); test: blocking ELISA, competitor CD47-hFc
Chain of human Sirpα-V2-his (human) (chain, as listed by the source): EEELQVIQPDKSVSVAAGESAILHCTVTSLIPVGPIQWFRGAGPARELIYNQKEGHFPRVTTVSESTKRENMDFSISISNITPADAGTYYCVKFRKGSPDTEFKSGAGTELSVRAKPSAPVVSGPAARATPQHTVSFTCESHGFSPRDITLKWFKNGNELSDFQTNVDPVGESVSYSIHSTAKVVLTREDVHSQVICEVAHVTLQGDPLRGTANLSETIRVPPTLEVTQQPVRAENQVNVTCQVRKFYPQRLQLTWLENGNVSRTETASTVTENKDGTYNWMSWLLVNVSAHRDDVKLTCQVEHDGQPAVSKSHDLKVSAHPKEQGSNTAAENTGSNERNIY
Protocol: (§3) Specifically, the recombinant protein of human Sirpα-V2-his was diluted to a concentration of 2 μg/mL with a PBS buffer at pH7.4, then added into a 96-well ELISA plate (Corning, CLS3590-100EA) at a volume of 50 μL/well, and placed in an incubator at 37° C. for 2 hours. After the liquid was discarded, the wells were added with a blocking solution of 5% skimmed milk (skimmed milk powder available from Bright Dairy) diluted with PBS at 230 μL/well, and incubated in an incubator at 37° C. for 3 hours, or placed overnight at 4° C. (for 16-18 hours) for blocking. […] The plate was washed for 5 times, added with 50 μL/well of a streptavidin-HRP secondary antibody (GenScript, M00091) diluted at 1:1000, incubated at 37° C. for 1 hour, and then washed with PBST for 5 times. Each well was added with 50 μL TMB (Surmodic, Cat #TTMB-1000-01) for color development, and added with 50 μL/well of 1 M H₂SO₄ to stop the reaction. The readings on a microplate reader (MultiskanGO Thermo, Model: 51119200) were subjected to data analysis by GraphPad prism 5.

human Sirpα-V1-his [6] = target: T2, human Sirpα-V1-his; test: blocking ELISA, competitor CD47-hFc; remark: listed apart in the source
Protocol: as §2

human Sirpα-V2-his [7] = target: human Sirpα-V2-his (human); test: blocking ELISA, competitor CD47-his
Protocol: as §3

human Sirpα-V1-hFc [8] = target: T4, human Sirpα-V1-hFc; test: blocking ELISA, competitor CD47-his; remark: listed apart in the source
Protocol: as §1

T1 sequence (Q9P1W8 29-387): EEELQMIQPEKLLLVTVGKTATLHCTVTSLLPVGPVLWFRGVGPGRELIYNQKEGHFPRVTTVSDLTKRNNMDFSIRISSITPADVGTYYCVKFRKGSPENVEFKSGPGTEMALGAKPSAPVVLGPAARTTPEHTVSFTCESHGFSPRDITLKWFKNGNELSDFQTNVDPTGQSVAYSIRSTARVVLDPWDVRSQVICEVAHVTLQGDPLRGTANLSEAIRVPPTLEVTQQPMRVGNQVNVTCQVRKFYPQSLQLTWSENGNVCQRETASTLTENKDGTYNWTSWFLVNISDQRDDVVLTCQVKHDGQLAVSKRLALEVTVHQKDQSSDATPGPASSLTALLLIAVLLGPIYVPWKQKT

B1: humanized antibody mab14-h16 (antibody, human IgG4 S228P, kappa, V domains shown)
VH: QVQLVQSGAEVKKPGASVKVSCKASGYNFNIYWINWVRQAPGQGLEWIGNIYPSSISTNYNEKFKTRATLTVDKSTSTVYMELSSLRSEDTAVYYCARSEGTYYGGRYEGDWFGYWGQGTLVTVSS
VL: DIQMTQSPSSLSASVGDRVTITCRASQDIRNYLNWYQQKPGKAPKLLIYFTSTLHSGVPSRFSGSGSGTDFTLTISSLQPEDFATYYCQQGNTLPWTFGGGTKVEIKR
notes: hIgG4, κ
binding result [1]: no binding (tested: negative control 1.67%)
IC50 (human Sirpα-V1-his [2]): 5.28 nM
EC50 [3]: 0.124 nM
IC50 (human Sirpα-V1-hFc [4]): 3.88 nM
IC50 (human Sirpα-V2-his [5]): 6.29 nM
IC50 (human Sirpα-V1-his [6]): 6.14 nM
IC50 (human Sirpα-V2-his [7]): 2.39 nM
IC50 (human Sirpα-V1-hFc [8]): 4.81 nM
